From patent publication US5521157A, “Modified polypeptide compound with VIP-like activity” (Sanwa Kagaku Kenkyusho Co., Ltd., priority 1993, dated 1996)
Square brackets hold non-standard residues; d marks the D form. Ends that are not written are not given here. Peptide text beside a SMILES is read from it. hSer = N[C@@H](CCO)C(=O)O

Experiments:
[1] = in vitro; settings: male, Hartley, guinea pig, pH 7.8
Protocol: First, male Hartley guinea pigs (weight: 350-380 g) were anesthetized by intraperitoneally administering urethane. Next, the respiratory tract of each animal was exposed by cutting its neck and 4 ml of physiological saline was slowly injected into the respiratory tract. Then, the injected solution was recovered from the respiratory tract, which is referred to as the broncho-alveolar lavage wash.
1, 2, 3 and 4 hours after the initiation of the incubation, the reaction mixture was collected and the residual concentration of the (SEQ ID NO: 3)-n-hexylamide or the natural type VIP was measure under the following HPLC conditions to thereby determine the half-life thereof.
Column: μ-BONDASPHERE C-18 column (manufactured Waters Co., 3.9 mm×150 mm)
Eluent: eluted with 0.012N hydrochloric containing acetonitrile at a linear gradient concentration from 15 to 25%, for 20 min

[2] = biological target: enkephalinase (Homo sapiens, UniProt P08473); settings: incubated with enkephalinase, within 15 minutes; cited from earlier work
Sequence of enkephalinase (P08473 whole entry, species assumed): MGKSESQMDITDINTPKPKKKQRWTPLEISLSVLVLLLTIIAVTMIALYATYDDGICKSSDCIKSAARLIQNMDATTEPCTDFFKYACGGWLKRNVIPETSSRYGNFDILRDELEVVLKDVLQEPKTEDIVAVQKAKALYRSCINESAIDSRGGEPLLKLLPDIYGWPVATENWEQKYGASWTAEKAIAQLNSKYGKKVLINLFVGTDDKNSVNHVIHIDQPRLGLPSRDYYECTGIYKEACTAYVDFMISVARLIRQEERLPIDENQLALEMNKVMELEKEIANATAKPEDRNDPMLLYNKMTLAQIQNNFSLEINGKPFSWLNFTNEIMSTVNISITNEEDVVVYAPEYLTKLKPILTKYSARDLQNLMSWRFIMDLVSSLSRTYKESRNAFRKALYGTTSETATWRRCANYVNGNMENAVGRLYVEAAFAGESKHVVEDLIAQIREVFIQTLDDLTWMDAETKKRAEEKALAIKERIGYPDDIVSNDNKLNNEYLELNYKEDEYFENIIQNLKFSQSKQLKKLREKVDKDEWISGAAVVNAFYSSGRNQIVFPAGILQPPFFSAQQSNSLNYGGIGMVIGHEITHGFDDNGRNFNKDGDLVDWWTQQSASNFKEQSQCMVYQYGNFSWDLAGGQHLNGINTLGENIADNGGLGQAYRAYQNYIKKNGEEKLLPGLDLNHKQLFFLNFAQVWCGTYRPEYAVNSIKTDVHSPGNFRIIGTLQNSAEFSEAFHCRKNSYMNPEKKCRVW

[3] = broncho-alveolar lavage wash from guinea pig at 37° C.; cited from earlier work
[4] = Measurement of elution time in reversed phase HPLC (correlates to hydrophobicity); type: physicochemical; settings: reversed phase C-18 column, 40° C., 0.012N hydrochloric acid with 15, 25 and 50% acetonitrile, 50 minutes, 0.8 ml/min
Protocol: (Measurement of elution time in reversed phase HPLC)
It is well known that the elution time in HPLC with the use of a reversed phase column correlates to the hydrophobicity of a compound (cf. J. Med. Chem., vol. 18, pp. 549-552 (1975) and J. Pharm. Sci., vol. 66, pp. 747-749 (1977)). Thus, the elution time of each of the VIP analog derivatives obtained in the above Reference Production Example and production Examples was measured under the HPLC conditions as specified below. As a control, natural VIP having a human type amino acid sequence (purchased from Peptide Institute, INC.) was employed.
Column: μ-BONDASPHERE C-18 column (manufactured by Millipore Corporation, 3.9 mm×150 mm)
Eluent: eluted with 0.012N hydrochloric containing 15, 25 and 50% of acetonitrile in this order, for 50 minutes
Detection wavelength: 210 nm

[5] = test system: histamine-induced bronchoconstriction; assay: Duration of bronchoconstriction suppressing activity (Konzett-Rossler method); type: in vivo; settings: male guinea pig, drug dropped directly into the respiratory tract, 5 μg/kg histamine intravenously
Protocol: (Duration of bronchoconstriction suppressing activity)
The inhibitory activity of the VIP analog derivatives, obtained in the Production Examples above, on histamine-induced bronchoconstriction was evaluated on test samples in accordance with a Konzett-Rossler method. Natural type VIP was used as a control.
First, a male guinea pig was fixed under urethane-anesthesia. After cutting the neck of the animal, a canula drug line was inserted into its jugular vein while a canula connected to a Konzett-Rossler device was inserted into its respiratory tract. After dropping a test drug directly into the respiratory tract, the head of the animal was held up for 1 minute to allow the drug to reach the lungs. Subsequently, 5 μg/kg of histamine was intravenously administered to the animal and the bronchoconstriction was measured over time. One minute before the administration of histamine, succinylcholine chloride was intravenously administered to the animal to thereby suppress spontaneous respiration during the experiment. Evaluation was made in the following manner. Before the administration of the test drug, the intensity of bronchoconstriction induced by histamine was measured. Then, after the administration of the test drug, the time required for reducing by 50% the suppression of bronchoconstriction induced by the same dose of histamine as measured above was defined as t50. The t50 of each test drug was determined.

| Compound | Retention time [4] | t50 [5] | further results |
| --- | --- | --- | --- |
| CCCCCCNC(=O)[C@H](CCO)NC(=O)[C@H](CCCCN)NC(=O)[C@H](CC(C)C)NC(=O)[C@H](C)NC(=O)[C@H](CCCCN)NC(=O)[C@H](CC(N)=O)NC(=O)[C@H](CC(C)C)NC(=O)[C@H](Cc1ccc(O)cc1)NC(=O)[C@H](CCCCN)NC(=O)[C@H](CCCCN)NC(=O)[C@H](C)NC(=O)[C@H](C)NC(=O)[C@H](CC(C)C)NC(=O)[C@H](CCC(N)=O)NC(=O)[C@H](CCCCN)NC(=O)[C@H](CCCNC(=N)N)NC(=O)[C@H](CC(C)C)NC(=O)[C@H](CCCCN)NC(=O)[C@@H](NC(=O)[C@H](Cc1ccc(O)cc1)NC(=O)[C@H](CC(N)=O)NC(=O)CNC(=O)[C@@H](NC(=O)[C@H](Cc1ccccc1)NC(=O)[C@@H](NC(=O)[C@H](C)NC(=O)[C@H](CC(=O)O)NC(=O)[C@H](CO)NC(=O)[C@@H](N)Cc1c[nH]cn1)C(C)C)[C@@H](C)O)[C@@H](C)O [Production Example 2, VIP analog-n-hexylamide derivative] (HELM PEPTIDE1{H.S.D.A.V.F.T.G.N.Y.T.K.L.R.K.Q.L.A.A.K.K.Y.L.N.K.A.L.K.[O=C([C@H](CCO)N[*:1])[*:2]].[CCCCCCN[*:1]]}$$$$V2.0) |  |  | half-life at 330 μg/ml ([1]; broncho-alveolar lavage wash): 4.9 h |
| CC[C@H](C)[C@H](NC(=O)[C@H](CO)NC(=O)[C@H](CC(N)=O)NC(=O)[C@H](CC(C)C)NC(=O)[C@H](Cc1ccc(O)cc1)NC(=O)[C@H](CCCCN)NC(=O)[C@H](CCCCN)NC(=O)[C@@H](NC(=O)[C@H](C)NC(=O)[C@H](CCSC)NC(=O)[C@H](CCC(N)=O)NC(=O)[C@H](CCCCN)NC(=O)[C@H](CCCN=C(N)N)NC(=O)[C@H](CC(C)C)NC(=O)[C@H](CCCN=C(N)N)NC(=O)[C@@H](NC(=O)[C@H](Cc1ccc(O)cc1)NC(=O)[C@H](CC(N)=O)NC(=O)[C@H](CC(=O)O)NC(=O)[C@@H](NC(=O)[C@H](Cc1ccccc1)NC(=O)[C@@H](NC(=O)[C@H](C)NC(=O)[C@H](CC(=O)O)NC(=O)[C@H](CO)NC(=O)[C@@H](N)Cc1c[nH]cn1)C(C)C)[C@@H](C)O)[C@@H](C)O)C(C)C)C(=O)N[C@@H](CC(C)C)C(=O)N[C@@H](CC(N)=O)C(N)=O [VIP, vasoactive intestinal polypeptide] |  |  | half-life at 330 μg/ml ([1]; cerebrospinal or other body fluid): 1.2 h; VIP degraded [2]: more than 70%; half-life [3]: about 1.5 hours |
| Reference Production Example: basic VIP analog of SEQ ID NO: 3 disclosed in JP-A-6-220090 / EP-A-0,613,904, starting material of the derivatives (HSDAVFTGNYTKLRKQLAAKKYLNKALK[hSer]; ends and bridges not checked) [reference compound] | 13.8 min | 26 min |  |
| VIP analog-dihexylamide derivative (HSDAVFTGNYTKLRKQLAAKKYLNKALK[hSer]-dihexylamide) [Production Example 6] | 41.4 min |  |  |
| VIP analog-ethylenediaminemonoamide derivative (HSDAVFTGNYTKLRKQLAAKKYLNKALK[hSer]-{ethylenediamine monoamide}) [Production Example 8] | 12.1 min |  |  |
| VIP analog-laurylamide derivative (HSDAVFTGNYTKLRKQLAAKKYLNKALK[hSer]-laurylamide) [Production Example 3] | 40.0 min | 61 min |  |
| VIP analog-n-propylamide derivative (HSDAVFTGNYTKLRKQLAAKKYLNKALK[hSer]-{n‑propylamide}) [Production Example 1] | 18.0 min |  |  |
| VIP analog-oleylamide derivative (HSDAVFTGNYTKLRKQLAAKKYLNKALK[hSer]-oleylamide) [Production Example 5] | 48.3 min |  |  |
| VIP analog-stearylamide derivative (HSDAVFTGNYTKLRKQLAAKKYLNKALK[hSer]-stearylamide) [Production Example 4] | 46.8 min |  |  |
| VIP analog-triethylenetetraminemonoamide derivative (HSDAVFTGNYTKLRKQLAAKKYLNKALK[hSer]-{triethylenetetramine monoamide}) [Production Example 7] | 10.9 min | 58 min |  |
